Amyloid nucleation score data for 58 substances are collected here from the supplement of paper PMC12042874.

± gives the uncertainty stated by the source.

The data set is described as follows: amyloid nucleation score (Sup35N fusion, yeast selection) (log enrichment); library NNK1; higher = more nucleation; inactive = no reads after selection. In outline:
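Sup35N was fused to peptides of 20 random codons and expressed in psi-negative yeast, which were induced with 100 μM copper sulfate for 24 hours and then grown on medium lacking adenine and uracil for 7 days at 30°C. Plasmid inserts from input and output were sequenced on Illumina. The nucleation score is the DiMSum log enrichment of output over input reads, centred on the mode score of non-aggregating sequences. Sequences with under 100 input reads were left out, and random libraries had three technical output replicates.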

With YCANQRNSVPMGRMEPHSSS, the amyloid nucleation score was -0.2 ± 0.49.
Regarding WTYWGSCGGLWSKIFIYFLL, the amyloid nucleation score stood at 3.66 ± 0.078.
With LNGVNLRGFTRWLVGCGDVD, the amyloid nucleation score was found to be 0.141 ± 0.65.
As to YDPRIGLVSVGNVRNNSV, the amyloid nucleation score is -1.48 ± 1.4.
For FLYVNLL, the amyloid nucleation score was 0.091 ± 0.19.
As to FQRGKLTASLSMVHSSRVCF, the amyloid nucleation score is -1.6 ± 2.4.
HGKFRHLSCTASSNEVEGNN returned an amyloid nucleation score of 1.17 ± 0.58.
IFVYRRRMGSIV yielded an amyloid nucleation score of 1.08 ± 0.32.
WLLWLTSSYKHQWMT returned an amyloid nucleation score of -1.7 ± 1.4.
To LLYVRVHCLTAGFADSEASI belongs -0.168 ± 0.4.
The substance ILWFYYTLGACFCWLYINYK came in with an amyloid nucleation score of 0.26 ± 0.57.
For AVYAAYFWGSI, the amyloid nucleation score was -0.065 ± 0.69.
For DRAWTGVWDDESPTT the value was -0.383 ± 1.7; for FGQCSSLVLT, “inactive”.
Take SLSRD: the amyloid nucleation score was -0.393 ± 0.41.
In the case of MYVNSSNYDLWMNFKIVFWA, the amyloid nucleation score turned out to be 1.18 ± 0.25.
Substance VSKTTRSCCWELFEA showed an amyloid nucleation score of -0.052 ± 0.42.
Turning to VCSCRFLYI, the amyloid nucleation score was -1.53 ± 1.6.
QRHITSL came in with an amyloid nucleation score of -1.37 ± 1.9.
For WPRVGETSRVNLTTGIMS the value was -0.297 ± 0.29; for FFCERVLPVRVVC, 1.06 ± 0.76; for CRSFYIIEIVKMGPNGRKGV, -1 ± 0.78.
In the case of PCWGGTLGSVKLVVSSSA, the amyloid nucleation score result is “inactive”.
The substance YLNERE showed an amyloid nucleation score of -1.16 ± 1.
For the substance VISHEPAVFPTSRS, the amyloid nucleation score was determined as 0.121 ± 0.45.
The substance VRLTSINSLCIVGDTQGST returned an amyloid nucleation score of 0.945 ± 0.73.
The substance YVRWMSLAPSVQWH returned an amyloid nucleation score of 1.11 ± 0.19.
SLQPVYAATCSSFHYSFFAG came in with an amyloid nucleation score of 4.89 ± 0.074.
On to FKDLNIWDWKNGAHITNCLG, for which the amyloid nucleation score worked out at 1.05 ± 0.63.
GDLSLRLLG registered an amyloid nucleation score of 0.419 ± 0.66.
For PFYLEARKVDEVMSLTYIV the value was -0.693 ± 0.67; for SDNVSRLRILDR, 1.93 ± 0.47; for RLFHFWQSDGLVGSTKRVDY, 0.128 ± 0.42.
In the case of LYLDIWYCQIKVTFIGP, the amyloid nucleation score entry was “inactive”.
For ELYSDHIMTWM the value was 0.69 ± 0.36; for LAMSSQSHYCKRRSVCRKSV, 0.786 ± 0.81; for SCGNNYTSV, -0.236 ± 0.2.
On to LTFLRIYAIDSEPHLSGTML, for which the amyloid nucleation score is -0.51 ± 0.71.
For RLQDSLPTSEVTEIPPPAN the value was -0.405 ± 0.33.
As for TITIVVRYVETRCGNIRDVE, the amyloid nucleation score came to 0.794 ± 0.45.
For VDCLFLKHHFFLTVSSMVRN the value was 1.43 ± 0.84; for ASAGPRWIWFGLGLQRCDAY, -0.141 ± 0.87; for HWPGLVEYGLGWLRGRLVMG, 0.139 ± 0.6.
For LVRWVCIGFRYILRGELGVE the value was 0.052 ± 0.28; for GQRLLL, 1.07 ± 0.56; for GYSYFPNYHVFRVHE, 1.27 ± 0.54.
On to RCLTPVIRVIYFG, for which the amyloid nucleation score was -0.13 ± 0.3.
For SCGLTCDAEYGRGFPGLCMM, the amyloid nucleation score is 0.001 ± 1.1.
LSHVKTTRLMPLET gave an amyloid nucleation score of -1.11 ± 1.7.
Consider NWFTSMRGLYVSLWYRMKKG, for which the amyloid nucleation score entry is “inactive”.
For SVWVVCFVSRNVLVMFNSNF the value was “inactive”.
As to QLNLNLFACQCSTV, the amyloid nucleation score was found to be 8.072 ± 0.076.
VVVYGCLYILVARRYDTIAW showed an amyloid nucleation score of 0.493 ± 0.84.
On to KHQGNMTTINNKRAARLLGP, for which the amyloid nucleation score entry is “inactive”.
CYAGFCNQRLPHYLLKLQVL yielded an amyloid nucleation score of -0.42 ± 1.7.
In turn, YGCSVYTVCMF registered an amyloid nucleation score of 8.243 ± 0.071.
To NFLLTRPAAHELC belongs “inactive”; to ISMTDYVPSMHYAQTRVHLN, -0.085 ± 0.78.
